Experiment: yeast display, Sf9 membrane polyspecificity reagent, FACS + sequencing; frameworks hold sequencing errors
Procedure, shortened: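 A synthetic nanobody library was expressed on Saccharomyces cerevisiae BJ5465 by galactose induction for 36–48 hours. The library was stained for 1 hour at 4 °C with 10% biotinylated, detergent-solubilized Sf9 membrane reagent and enriched with streptavidin microbeads before FACS. Low and high (top ~1%) gates were set on anti-HA fluorescence for expression and streptavidin fluorescence for reagent binding, and each polyreactivity label reflects the gate of origin.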

Sequence	polyreactivity (PSR sort gate)
QVQLVESGGGLVQAGGSLRLSCAASGRIFVSNAMGWYRQAPGKERELVAAISKSGGRTYYADSVKGRFTISRDNAKNTVYLQMNSLKPEDTAVYYCNAVISLPGNKYDYWGQGTQVTVSS	high polyreactivity
QVQLVESGGGLVQAGGSLRLSCAASGRIFVSYAMGWYRQAPGKERELVAAISNSGSRTYYADSVKGRFTISRDNAKNTVYLQMNSLKPEDTAVYYCAAGQGAGVDYWGQGTQVTVSS	high polyreactivity
QVQLVESGGGLVQAGGSLRLSCAASGRIFVSYTMGWYRQAPGKERELVAAIRGTGSTYYADSVKGRFTISRDNAKNTVYLQMNSLKPEDTAVYYCNADYLRWDIWYWHGYDYWGQGTQVTVSS	high polyreactivity
QVQLVESGGGLVQAGGSLRLSCAASGRIFVSYVMGWYRPAPGKEREFVAAIRRSGSSTYYADSVKGRFTISRDNAKNTVYLQINRLKPEDTAVYYCAAYQRSRTLRRYDYWGQGTQVTVSS	high polyreactivity
QVQLVESGGGLVQAGGSLRLSCAASGRIFVTNAMGWYRQAPGKERELVAAISYRGGRTYYADSVKGRFTISRDNAKNTVYLQMNSLKPEDTAVYYCNAVTRWPFDYWGQGTQVTVSS	high polyreactivity
QVQLVESGGGLVQAGGSLRLSCAASGRIFVTNTMGWYRQAPGKERELVAAIDNSAGSTYYADSVKGRFTISRDNAKNTVYLQMNSLKPEDTAVYYCAADYPPYYGYGYWGQGTQVTVSS	low polyreactivity
QVQLVESGGGLVQAGGSLRLSCAASGRIFVVYAMGWYRQAPGKERELVAAITYGGGSTHYADSVKGRFTISRDNAKNTVYLQMNSLKPEDTAVYYCAADLFYHSYGYEYWGQGTQVTVSS	low polyreactivity
QVQLVESGGGLVQAGGSLRLSCAASGRIFVVYVMGWYRQAPGKEREFVAAITWGGGNTYYADSVKGRFTISRDNAKNTVYLQMNSLIPEDTAVYYCAAAPRKYVWMDYWGQGTQVTVSS	low polyreactivity
QVQLVESGGGLVQAGGSLRLSCAASGRIFVVYVMGWYRQATGKEREFVAAITWGGGNTYYADSVKGRFTISRDNAKNTVYLQMNSLKPEDTAVYYCAAAPRKYVWMDYWGQGTQVTVSS	low polyreactivity
QVQLVESGGGLVQAGGSLRLSCAASGRIFVWNAMGWYRQAPGKERELVAAITSSGGNTYYADSVKGRFTISRDNAKNTVYLQMNSLKPEDTAVYYCAARSSSRTQATTRYGYWGQGTQVTVSS	high polyreactivity
QVQLVESGGGLVQAGGSLRLSCAASGRIFVYNAMGLYRQAPGKERELVAAISSTGSTNYADSVKGRFTISRDNAKNTVYLQMNSLKPEDTAVYYFAAVYYFYGYSGYYGQYDYWGQGTQVTVSS	low polyreactivity
QVQLVESGGGLVQAGGSLRLSCAASGRIFVYNTMGWYRQAPGKERELVAAIDWSGGSKYYADSVKGRFTISRDNAKNTVYLQMNSLKPEDTAVYYCNADSLIGMDYWGQGTQVTVSS	high polyreactivity
QVQLVESGGGLVQAGGSLRLSCAASGRIFVYNVMGRYRQAPGKERDLVAAISWGTGSTYADSVKGRFTISRDNAKNTVYLQMNSLKPEDTAVYYCAADSFIPPYDHWGLGTQVTVSS	low polyreactivity
QVQLVESGGGLVQAGGSLRLSCAASGRIFVYNVMGWYRQAPGKERELVAAISWGTGSTYADSVKGRFTISRDNAKNTVYLQMNSLKPEDTAVYYCAADSFIPPYDHWGQGTQVTVSS	low polyreactivity
QVQLVESGGGLVQAGGSLRLSCAASGRIFVYYAMGWYRQAPGKEMELVASISYSGASTYYADSVKGRFTISRDNAKNTVYLQMNSLKPEDTAVYYCNTDGDDFFHVIYDYWGQGTQVTVSS	low polyreactivity
QVQLVESGGGLVQAGGSLRLSCAASGRIFVYYAMGWYRQAPGKEREFVAAISSRDDSTYYADSVKGRFTISRDNAKNTVYLQMNSLKPEDTAVYYCAADWRLGVGYDYWGQGSQVTVSS	low polyreactivity
QVQLVESGGGLVQAGGSLRLSCAASGRIFVYYPMGWYRQAPGIERELVAAINAGGSTNYADSVKGRFTISRDNAKNTVYLQMNSLKPEDTAVYYCAAVRRSRYSYRGYYWGQGTQVTVSS	high polyreactivity
QVQLVESGGGLVQAGGSLRLSCAASGRIFVYYTMGWYRQAPGKERELVAAITGSGGSTYYADSVKGRFTISRDNAKNTVYLQMNSLKPEDTAVYSCAVYDSYRKFKYWGQGTQVTVSS	high polyreactivity
QVQLVESGGGLVQAGGSLRLSCAASGRIFWANAMGWYRQAPGKERELVAAINRRTGITYYADSVKGRFTISRDNAKNTVYLQMNSLNPEDTAVYYCAAARGKDGYSGQGTQVTVSS	high polyreactivity
QVQLVESGGGLVQAGGSLRLSCAASGRIFWANAMGWYRQAPGKERELVAAISNSGVSTYYADSVKGRFTISRDNAKHTVYLQMNSLKPEDTAVYYCAADRYRKYYYWGQGTLVTVSS	high polyreactivity
QVQLVESGGGLVQAGGSLRLSCAASGRIFWAYAMGWYRQAPGKERELVAGITFTGGRTYYADSVKGRFTISRDNAKNTVYLQMNSLKPEDTAVYYCAAAGLDVGRKDRDGYWGQGTQVTVSS	low polyreactivity

Sequence	polyreactivity (PSR sort gate)
QVQLVESGGGLVQAGGSLRLSCAASGRIFWGNALGWYRQAPGKVRELVAAITRRGGTTFYADSVKGRFTISRDNAKNTVYLQKNSLKPEDTAGYYCAARRYCQYDGYDSGGQGTQVTVSS	high polyreactivity
QVQLVESGGGLVQAGGSLRLSCAASGRIFWGNAMGWYRQAPGKERELVAAISSSGGSTYYADSVKGRFTISRDNAKNTVYLQMNSLKPEDTAVYYCAARYPTYYYRYDYWGQGTQVTVSS	high polyreactivity
QVQLVESGGGLVQAGGSLRLSCAASGRIFWGYAMGWYRQAPGKERELVARITSGGDTYYADSVKGRFTISRDNAKNTVYLQMNSLKPEDTAVYYCNADVGTEWDNYPEVDYWGQGTQVTVSS	low polyreactivity
QVQLVESGGGLVQAGGSLRLSCAASGRIFWGYDMGWYRQAPGKERELVAAINWSGGITNYADSVKGRFTISRDNAKNTVYLQMNSLKPEDTAVYYCAADTYWHRYYWGQGTQVTVSS	high polyreactivity
QVQLVESGGGLVQAGGSLRLSCAASGRIFWPYAMGWYRPAPGKERELVAAITSGGSTYYADSVKGRFTISRDNAKNTVYLQMNSLKPEVTAVYYCAKRSSGVSVPVAYGGIKRYNSWGQGTQVTVSS	low polyreactivity
QVQLVESGGGLVQAGGSLRLSCAASGRIFWPYAMGWYRQAPGKERELVAAISRGGSTYYADSVKGRFTISRDNAKNTVYLQINSLKPEDTAVYYCAVAFRGSYRPAYYYWRQGTQVTVSS	high polyreactivity
QVQLVESGGGLVQAGGSLRLSCAASGRIFWPYAMGWYRQAPGKERELVAAISWGDGTTYYADSVKGRFTISRDNAKNTVYLQMNSLKPEDTAVYYCAVELWPDYVTDIRYYDGFDYWGQGTQVTVSS	low polyreactivity
QVQLVESGGGLVQAGGSLRLSCAASGRIFWPYAMGWYRQAPGKERELVAAITSGGSTYYADSVKGRFTISRDNAKNTVYLQMNSLKPEDTAVYYCNAKLRRHYDHLYDYWGQGTQVTVSS	low polyreactivity
QVQLVESGGGLVQAGGSLRLSCAASGRIFWRYAMGWYRQAPGKERELVAGITYSGGRTYYADSVKGRFTISRDNAKNTVYLQMNSLTPEDTAVYYCAARGYFDALFDYWGQGTQVTVSS	low polyreactivity
QVQLVESGGGLVQAGGSLRLSCAASGRIFWRYAMGWYRQAPGKERQLVAGITYSGGRTYYADSVKGRFTISRDNAKNTVYLQMNSLKPEDTAVYYCAARGYFDALFDYWGQGTQVTVSS	low polyreactivity
QVQLVESGGGLVQAGGSLRLSCAASGRIFWSNAMGWYRQAPGKERELVAAISYSGGSTYYADSVKGRFTISRDNAKNTVYLQMNSLKPEDTAVYYCAALFRPRVHRFDYWGQGTQVTVSS	low polyreactivity
QVQLVESGGGLVQAGGSLRLSCAASGRIFWSYAMGWYRPAPGKERELVAAISYSGGGTYYADSVKGRFTISRDNAKNTVYLQMNSLKPEDTAVYYCAAETYYAPYDYWGQGTQVTVSS	high polyreactivity
QVQLVESGGGLVQAGGSLRLSCAASGRIFWTYAMGWYRQAPGKERELVASITWSGGSTYYADSVKGRFTISRDNAKNTVYLQMNSLKPEDTAVYYCHTDVLAPYDSGYWGQGTQVTVSS	low polyreactivity
QVQLVESGGGLVQAGGSLRLSCAASGRIFWYYAMGGYRQAPGKEREFVATINTSGGSTYYADSLKGRFTISRDYARSTVCLQMNSLTPEDTAVYYCYAACRYYRTEYYSWGQGTQVTVSS	low polyreactivity
QVQLVESGGGLVQAGGSLRLSCAASGRIFWYYAMGWSRQAPGKERELVATISSRSGSTYYADSVKGRFTISRDNAKNTVYLQMNSLKPEDTAVYYCAAGTPYYLGYRHNTGLFDYWGQGTQVTVSS	high polyreactivity
QVQLVESGGGLVQAGGSLRLSCAASGRIFWYYAMGWYRQAPGKERELVAAISWSGGTTYYADSVKGRFTISRDNAKNTVYLQMNSLKPEDTAVYYCAAVFQYGYGEDYWGQGTQVTVSS	high polyreactivity
QVQLVESGGGLVQAGGSLRLSCAASGRIFWYYAMGWYRQAPGKERELVARITSGGRTYYADSVKGRFTISRDNAKNTVYLQMNSLKPEDTAVYYCARRGRKAYGYWGQGTQVTVSS	high polyreactivity
QVQLVESGGGLVQAGGSLRLSCAASGRIFWYYAMGWYRQAPGKERELVASITRGNNTYYADSVKGRFTISRDNAKNPVYLQMNSLIPEDTAVYYCNAYRVRYTVDSVFYGYDYWGQGTHVTVSS	high polyreactivity
QVQLVESGGGLVQAGGSLRLSCAASGRIFWYYSMGRYRQAPATEREVVATITTRSGSTYYADSVKGRFTISRDNAKNTVYLQMNSMKPEDTAGYYCAADWPLLYTGSHSQTKYGYWGQGTQVTVSS	high polyreactivity
QVQLVESGGGLVQAGGSLRLSCAASGRIFWYYVMGWSRQAPGKEREFVASISSGGSTYYADSVKGRFTISRDNAKNTVYLQMNSLKPEDTAVYYCNAYVYGQRVWYDYWGQGTQVTVSS	high polyreactivity
